Assay results taken from patent publication US20170137514A1 (Bristol-Myers Squibb, published 2017).
Substitutions are numbered along the chain they refer to. Names may count otherwise.

T1: soluble human LAG-3/Fc antigen (human, UniProt P18627 23-450)
T1 construct: also called huLAG-3-Fc; not shown: Fc part of the fusion
T1 sequence: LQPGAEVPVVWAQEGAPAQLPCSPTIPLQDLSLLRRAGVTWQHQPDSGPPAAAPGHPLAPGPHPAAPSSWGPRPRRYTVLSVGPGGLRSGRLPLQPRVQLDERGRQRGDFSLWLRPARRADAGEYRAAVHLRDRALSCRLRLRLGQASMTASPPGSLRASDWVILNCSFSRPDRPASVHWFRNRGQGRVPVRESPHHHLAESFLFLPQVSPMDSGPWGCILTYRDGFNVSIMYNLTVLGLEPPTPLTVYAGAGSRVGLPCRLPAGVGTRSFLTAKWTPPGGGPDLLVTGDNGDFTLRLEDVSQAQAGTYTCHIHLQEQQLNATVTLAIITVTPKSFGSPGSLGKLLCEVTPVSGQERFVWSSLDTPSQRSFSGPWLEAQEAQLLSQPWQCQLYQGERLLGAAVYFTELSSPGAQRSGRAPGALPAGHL

T2: human LAG-3 on activated Hu CD4+ T cells
T2 construct: differs from m5, which is LAG-3 transduced into 3A9 cells; also called native human LAG-3
T2 chain: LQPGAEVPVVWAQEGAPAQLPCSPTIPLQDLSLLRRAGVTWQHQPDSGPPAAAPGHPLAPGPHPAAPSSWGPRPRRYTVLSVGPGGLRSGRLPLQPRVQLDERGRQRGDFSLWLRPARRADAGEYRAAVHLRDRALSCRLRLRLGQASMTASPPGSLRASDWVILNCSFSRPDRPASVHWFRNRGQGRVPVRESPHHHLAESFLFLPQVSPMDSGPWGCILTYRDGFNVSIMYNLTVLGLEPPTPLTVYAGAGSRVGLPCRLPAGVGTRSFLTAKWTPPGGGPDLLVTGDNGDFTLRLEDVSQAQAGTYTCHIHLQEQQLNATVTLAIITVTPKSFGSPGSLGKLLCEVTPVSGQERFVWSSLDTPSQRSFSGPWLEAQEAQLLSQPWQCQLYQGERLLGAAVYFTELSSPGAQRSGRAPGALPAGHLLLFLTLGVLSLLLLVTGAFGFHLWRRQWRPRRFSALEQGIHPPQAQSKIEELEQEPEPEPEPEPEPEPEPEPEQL

B1: LAG3.6-G4P (antibody, V domains shown)
VH: QVQLQQWGAGLLKPSETLSLTCAVYGGSFSDYYWNWIRQPPGKGLEWIGEIIHSGSTNSNPSLKSRVTLSLDTSKNQFSLKLRSVTAADTAVYYCAFGYSDYEYNWFDPWGQGTLVTVSS
VL: EIVLTQSPATLSLSPGERATLSCRASQSISSYLAWYQQKPGQAPRLLIYDASNRATGIPARFSGSGSGTDFTLTISSLEPEDFAVYYCQQRSNWPLTFGQGTNLEIKR
notes: also called var2; copies: 2 + 2
B2: LAG3.8 antibody variant of LAG3.1 (25F7) (antibody, V domains shown)
VH: B1 VH with I52N, S54I, S56N
VL: B1 VL
notes: It was made by site-directed mutagenesis of the LAG3.1 VH
B3: LAG3.7-G4P (antibody, V domains shown)
VH: B1 VH with I52N, S54G, S56G
VL: B1 VL
notes: also called var3; copies: 2 + 2
B4: antibody 25F7 (LAG3.1), anti-human LAG-3 human monoclonal antibody (antibody, human IgG4 S228P, kappa, V domains shown)
VH: B1 VH with I52N, S54N, S56N
VL: B1 VL
notes: The heavy chain is human IgG4 with S228P; also called antibody LAG3.1

Key:
[1] = target: T1, soluble human LAG-3/Fc antigen; assay: BIACORE (surface plasmon resonance) with soluble human LAG-3/Fc antigen
[2] = target: T2, human LAG-3 on activated Hu CD4+ T cells; assay: flow cytometry on anti-CD3/anti-CD28-activated human CD4+ T cells (native LAG-3), PE anti-human Fc detection, FL2 GMFI
Procedure: (§1) To test the ability of the antibody variants to bind to native human LAG-3 on the surface of activated human T cells, normal healthy donor peripheral blood mononuclear cells were stimulated in 15 cm tissue culture plates at a density of 2×10e6 cells/mL, with a combination of anti-CD3 (eBioscience, Cat #16-0037-85) and anti-CD28 (BD Bioscience, Cat #555725) antibodies present in solution at 5 μg/mL and 3 μg/mL, respectively. Following three days of stimulation cells were harvested, washed 1× with 1×PFAE buffer (1×PBS+2% FBS, 0.02% sodium azide, 2 mM Na EDTA), and resuspended in 1×PFAE buffer for staining.
(§2) For the binding reaction, 100 μl of this diluted antibody mixture was added to 2×10⁵ cells and the mixture was incubated on at 4° C. for 30 minutes. The cells were then washed two times with 1×PFAE buffer. A 1:200 dilution of PE-labeled goat anti-human Fcγ-specific antibody (Jackson ImmunoResearch, Cat. #109-116-170) was added and the mixture was incubated for 30 minutes at 4° C., followed by washing twice with cold 1×PFAE buffer. After the final wash, 150 μl of cold 1×PFAE was added to each solution and analysis of antibody binding was carried out by flow cytometry using a FACSCanto flow cytometer (BD Bioscience).

[3] = target: T2, human LAG-3 on activated Hu CD4+ T cells; assay: flow cytometry on activated human CD4+ T cells (donor WB1907), FL2 GMFI; antibody after 5 days at 40 °C in pH 8.0 ammonium bicarbonate
Procedure: as §1, §2

[4] = target: T1, soluble human LAG-3/Fc antigen; assay: Biacore (SPR); antibody after accelerated stress at pH 8 (5 days, 40 C)
[5] = target: T2, human LAG-3 on activated Hu CD4+ T cells; assay: flow cytometry on activated human CD4+ T cells (donor WB1907), FL2 GMFI; forced stability study, sample not marked pH 8
Procedure: as §1, §2

[6] = target: T1, soluble human LAG-3/Fc antigen; assay: Biacore (SPR); antibody kept in PBS

Binder	Kd [1] [nM]	koff [1] [s⁻¹]	kon [1] [M⁻¹ s⁻¹]	EC50 [2] [nM]	EC50 [3] [nM]	Kd [4] [nM]	koff [4] [s⁻¹]	kon [4] [M⁻¹ s⁻¹]	EC50 [5] [nM]	Kd [6] [nM]	koff [6] [s⁻¹]	kon [6] [M⁻¹ s⁻¹]	EC50 (read off the curve) [2] [nM]
B1	0.66	0.000777	1.18e+06	0.21	–	–	–	–	–	–	–	–	–
B2	–	–	–	–	0.21	0.25	0.000402	1.62e+06	0.24	0.25	0.000368	1.47e+06	–
B3	–	–	1.04e+06	–	–	–	–	–	–	–	–	–	~0.3
B4	0.27	–	–	0.13	0.2	0.2	–	–	–	0.21	–	–	–
